In the DeepSol protein solubility set:

Assay: soluble on expression in E. coli; label from the status in PepcDB or PDB records

Sequence	soluble on expression in E. coli
MKKVLLFAVVFSCSMWANAQRVTWATEAGLSAIQRTGYGECWRPSTRLGISADYNVNNMFSMKSGLYYTFRGYSVNNGGTYSNGDATWIENVSQTRHFLQVPILAKFSIHSNNSTKFFFEIGSYIGYCIKNHIDSNPYYLTMPSSGWVEGYPGVGESAEGGSNQFLYQHARNFDWGMTSAVGIENRRWTVKLQYEMSLGKESKNDNIGVNYNSLTLSVGYKLNVKQ	not soluble
MNDSIDDDFPPEPRGRCYTWPMQQYIYQESSATIPHHHLNQHNNPYHPMHPHHQLPHMQQLPQPLLNLNMTTLTSSGSSVASSIGGGAQCSPCASGSSTAATNSSQQQQTVGQMLAASVPCSSSGMTLGMSLNLSQGGGPMPAKKKRCRKKPTDQLAQKKPNPWGEESYSDIIAKALESAPDGRLKLNEIYQWFSDNIPYFGERSSPEEAAGWKNSIRHNLSLHSRFMRIQNEGAGKSSWWVINPDAKPGRNPRRTRERSNTIETTTKAQLEKSRRGAKKRIKERALMGSLHSTLNGNSIAGSIQTISHDLYDDDSMQGAFDNVPSSFRPRTQSNLSIPGSSSRVSPAIGSDIYDDLEFPSWVGESVPAIPSDIVDRTDQMRIDATTHIGGVQIKQESKPIKTEPIAPPPSYHELNSVRGSCAQNPLLRNPIVPSTNFKPMPLPGAYGNYQNGGITPINWLSTSNSSPLPGIQSCGIVAAQHTVASSSALPIDLENLTLPDQPLMDTMDVDALIRHELSQAGGQHIHFDL	not soluble
MYRNLLNWLTILLVFPSCSGTSPTISVVCEENNVGNAIIKWETAPILKGQVKVYASTSPDFIPEENPVVTINIAKGKKTIVTNDPSQRYYYLMVFNNRYRVRVAARNVNIPGIQNFRDLGGYKSAETGKDTRWGMLYRSAQIDSIPFCSRRELKNMGIRTIIDLRSEEERHNYPQLHDEDFNVLHLPIATGNMEHILQDIRDKKIETDTIYRLVERMNRQLVTNYRKEYKELFTLLLDRNNYPVVIHCTSGKGRTGIVSALVLAALGVNEEAIMKDYRLSNDYFNIPKASRYAYKLPINSQEAITTIYSAKEDFLNAAKEQIDAEYGSVQAYLKKGIGLSAEEIERLRSILLIDNGLEHHHHHH	not soluble
MGSDKIHHHHHHNFDDLLQLLEIHSRVFDVTPPSTGTVGSMRYLEYNGHVLANVEDLYILDNNKLPSPGVPVETLKLFGVDYIQTGDGVKIITCRVNSIEEIGKTVVVNFEGEKNFDVEQTQNSVRIIAKDWLLFRGVVKMPEEVLYEKENVRIERTAESDGQFRILLSAESVGKYVVKPFGERVDPYEKDVVFLVGYGDGRIIVRSFSKDLNGLDLPAYSESLKLARKIANELGYKLEECPVYDIPVGVIGMIVLLKGKDEMPVFLNTVERLMAE	not soluble
MIDLSKTVFYTSIDIGSRYIKGLVLGKRDQEWEALAFSSVKSRGLDEGEIKDAIAFKESVNTLLKELEEQLQKSLRSDFVISFSSVSFEREDTVIERDFGEEKRSITLDILSEMQSEALEKLKENGKTPLHIFSKRYLLDDERIVFNPLDMKASKIAIEYTSIVVPLKVYEMFYNFLQDTVKSPFQLKSSLVSTAEGVLTTPEKDRGVVVVNLGYNFTGLIAYKNGVPIKISYVPVGMKHVIKDVSAVLDTSFEESERLIITHGNAVYNDLKEEEIQYRGLDGNTIKTTTAKKLSVIIHARLREIMSKSKKFFREVEAKIVEEGEIGIPGGVVLTGGGAKIPRINELATEVFKSPVRTGCYANSDRPSIINADEVANDPSFAAAFGNVFAVSENPYEETPVKSENPLKKIFRLFKELME	soluble
MSLPISLTDFFPIQGGMATRMVIEGANFGTDLSQIKVFFNQKEASILNVKNSIIYLLVPKLPGNDCIVTVKVGNQEARFTRNFQYIENYSVTTIAGQPGTNLFVEGTLAAAQFGPVQHLAIDDENNLFITERNGSDGKGTCSVLNEESGTVTFLFKASDNLNVPTVNAQTQNVYIPLDGGYTFYELNPVNQWIAKSRLVLHPSKEQQEAGMDDFEINWKHSLAFSRYDNMIYTRSYGGDLIKVDPETRVGQKIGNFFPNTDSFIVAHPTQPEILYIAYAAKHVIYTYNIETGEHKLFAGAFGQSGWNDGIATDAEFNSPRQMSLDMEGNIYIADSGNHCIRMIDKNGIVTTPIGQPGEAGYADGSPDMALLNDPRGVAVNSEGDVYIADLGNRCIRKLTLQLEHHHHHH	soluble
MIVGSHQQYVVPSYSAAYVPSAYAYPSVYSPYVAAAAYPSVWAWGSNKNKDDAAPRAFARPSALLNNQKPTTA	not soluble
MSSNYVMATKEGQMLLTQGKPMLDKDTGLLSYTDEQGNQKQINSDQVSQIVQRLEHHHHHH	not soluble
MSLTELTGNPRHDQLLMLIAERGYMNIDELANLLDVSTQTVRRDIRKLSEQGLITRHHGGAGRASSVVNTAFEQREVSQTEKKKAIAEAVADYIPDGSTIFITIGTTVEHVARALLNHNHLRIITNSLRVAHILYHNPRFEVMVPGGTLRSHNSGIIGPSAASFVADFRADYLVTSVGAIESDGALMEFDVNEANVVKTMMAHARNILLVADHTKYHASAAVEIGNVAQVTALFTDELPPAALKSRLQDSQIEIILPQEDALEHHHHHH	soluble
MKFGLFFLNFMNSKRSSDQVIEEMLDTAHYVDQLKFDTLAVYENHFSNNGVVGAPLTVAGFLLGMTKNAKVASLNHVITTHHPVRVAEEACLLDQMSEGRFAFGFSDCEKSADMRFFNRPTDSQFQLFSECHKIINDAFTTGYCHPNNDFYSFPKISVNPHAFTEGGPAQFVNATSKEVVEWAAKLGLPLVFRWDDSNAQRKEYAGLYHEVAQAHGVDVSQVRHKLTLLVNQNVDGEAARAEARVYLEEFVRESYSNTDFEQKMGELLSENAIGTYEESTQAARVAIECCGAADLLMSFESMEDKAQQRAVIDVVNANIVKYHSLEHHHHHH	soluble
MNKLTIIVTYYNAEEYITGCLESIKQQRTQDFNLIIVNDGSTDQSKKLMDEAIKDYDKNIRFIDLDENSGHAHARNIALEEVETPYFMFLDADDELASYAITFYLEKFNNTDGLIAPIHSFTTQRPQFVDLDRVRVEYFNAKENINSFLRKQSACNIIFRTAIVRAHHIRFNENLNTYVDWSFVLEYMKYVNKFVRIFNFPFYFRGEVYDPFETLTLSEQNFDILFKDYVNSFYDAIKRATNPKVREFIVTKMGNKIANEFEPTRYDINERYQTHKDTLVELSKFLHVHLVKNQKLINKIETILLMNNETDKAFKVNQFRKTLRHVKNIVLRRKNKERSLYDLTDKEDNVKPKTIVFESFGGKNYSDSPKYIYEYMQKYYPNYRYIWSFKNPDKNVVPGSAEKVKRNSAEYYQAYSEASHWVSNARTPLYLNKKENQTYIQTWHGTPLKRLANDMKVVRMPGTTTPKYKRNFNRETSRWDYLISPNRYSTEIFRSAFWMDEERILEIGYPRNDVLVNRANDQEYLDEIRTHLNLPSDKKVIMYAPTWRDDEFVSKGKYLFELKIDLDNLYKELGDDYVILLRMHYLISNALDLSGYENFAIDVSNYNDVSELFLISDCLITDYSSVMFDYGILKRPQFFFAYDIDKYDKGLRGFYMNYMEDLPGPIYTEPYGLAKELKNLDKVQQQYQEKIDAFYDRFCSVDNGKASQYIGDLIHKDIKEQLEHHHHHH	soluble
QNDLMIQSQVKFYTILFSARRATPELEIPEGSFYNGIRGYNLFVAKKDRRTGMLHDMMIYDHSQGFADARIIVADSGKLKMDEGKTFLTLMLHSGETFQNLRSQQTESNAPTPYMRERFRTKEIVIPFDANFSLMDEGAMRGEYVGKNLIQLQRFIDTVTLRVDSASFRNANNLYIQTYNAR	not soluble
MEQIHGGDSNSGGGGGGSSRNDEISVTRASRFDALPEDCISKVISHTSPRDACVVASVSKSVKSAAQSDLVWEMFLPSEYSSLVLQSANHLSKKEIFLSLADNSVLVENGKKSFWVEKASGKKCYMLSAMELTIIWGDSPAYWKWITVPESKFEKVAELRNVCWFEVRGKISCGMLSKGTHYSVYVVFKTANGRSYGFDLVPVEAGVGFVGKVATKKSVYFESGNADSRSATSHYSGISEEEEEVEGERERGMNVVGPKERVDGWSEVELGKFYINNGGCGDDGSDEIEISIMETQNGNWKSGLIIQGIEIRPERSN	soluble
MAPSCLKMAHMRLLLTSFGHDHIRDFVRGTVAYIPDATRLFADSPEAAPFMETERNMLREHGLSIRELPISTSTPEEVDRVLGEVDGVYVAGGETFDLMWLLRSTGNDEVLIKHVRAGLPYIGTSAGAVIAGPSIEPISFLDSPDVAPNLSDYSGLGLCEHVVVPHAGGTIPQFPIDVFAETVRTYGAEFPLVLLKDGQALLIDDHGVHLILEHHHHHH	soluble
MKDGMRVGERFTHDFVVPPHKTVRHLYPESPEFAEFPEVFATGFMVGLMEWACVRAMAPYLEPGEGSLGTAICVTHTAATPPGLTVTVTAELRSVEGRRLSWRVSAHDGVDEIGSGTHERAVIHLEKFNAKVRQKTPAG	soluble
MGSDKIHHHHHHMSYRIVVDPKEVVKPISRHIYGHFTEHLGRCIYGGIYEEGSPLSDERGFRKDVLEAVKRIKVPNLRWPGGNFVSNYHWEDGIGPKDQRPVRFDLAWQQEETNRFGTDEFIEYCREIGAEPYISINMGTGTLDEALHWLEYCNGKGNTYYAQLRRKYGHPEPYNVKFWGIGNEMYGEWQVGHMTADEYARAAKEYTKWMKVFDPTIKAIAVGCDDPIWNLRVLQEAGDVIDFISYHFYTGSDDYYETVSTVYLLKERLIGVKKLIDMVDTARKRGVKIALDEWNVWYRVSDNKLEEPYDLKDGIFACGVLVLLQKMSDIVPLANLAQLVNALGAIHTEKDGLILTPVYKAFELIVNHSGEKLVKTHVESETYNIEGVMFINKMPFSVENAPFLDAAASISEDGKKLFIAVVNYRKEDALKVPIRVEGLGQKKATVYTLTGPDVNARNTMENPNVVDITSETITVDTEFEHTFKPFSCSVIEVELE	not soluble
DVQITQSPSYLAASPGETITLNCRASKSISKYLAWYQEKPGKTNKLLIYSGSTLQSGIPSRFSGSGSGTDFTLTISSLEPEDFAMYFCQQHNEYPYTFGGGTKLEIKRTVAAPSVFIFPPSDEQLKSGTASVVCLLNNFYPREAKVQWKVDNALQSGNSQESVTEQDSKDSTYSLSSTLTLSKADYEKHKVYACEVTHQGLSSPVTKSFNRGEC	soluble
MGSDKIHHHHHHMTIPTSYLNHTDAEAARKARATYRDGLVAPTSGIAPGFTQANMIVLPRDWAFDFLLYAQRNPKPCPVLDVSDPGSPTTLLAPGADLRTDLPLYRIWRDGKLAEETADATSAWAERDDLVAFLIGCSFTFETPMVEAGIEIRHMTDKSNVPMYLTNRPCRPAGRLKGNMVVSMRPIPASRVADAATISGRFPAVHGAPVHVGAPEQIGISDLSKPDFGDAVRIEPGEVPVFWACGVTPQAAVMASGVPFAITHAPGHMFITDIPDTAYHA	not soluble
MGSDKIHHHHHHMESENQEYQNEADLLSKQEEWCDEEFQEEDSFDIKEYDITTSPNDFNTKTMFDFIESGAVKIPGFQRNYVWDIKRASKLIESIIIGLPVPQIFLYEEARNRFLVIDGQQRLMSIYYFVKQRFPIYEKRIELRHIFDENGKIPGEVLHNDKYFTKFNLQLPSRLSNQRNKLHSLNYSTLDEYKITFDLRTIRNIIIKQNFPSDDNSSIYEVFNRLNSGGMNLKPQEIRASLYHSDFYTMLYRINALPEWRKIVGVEPDLHMKDIEILLRGFAMLVKGTEYKPSMAKFLNEFSSGCKKLEAQKIQYLEELFHSFLSSCSNLPEKAFYGKITNKFNLSMFESIFFAHCKKSFAQEIFIEDKLDYTQLERLKSDPEFINAIQNRTSSTANVKARLERAVSILAEEV	not soluble
STVLDSLQHTGRGDKVYWFCYGMKCYYFVMDRKTWSGCKQTCQSSSLSLLKIDDEDELKFLQLVVPSDSCWVGLSYDNKKKDWAWIDNRPSKLALNTRKYNIRDGGCMLLSKTRLDNGNCDQVFICICGKRLDKFPH	soluble
